Like-named read-outs stand apart in the source and are kept apart here.
Columns and labels:
GABAA receptors in SPMs [1] = assay type: binding, rat; conditions: for displacing ^125I-rMmTX2 (in words): SPMs; for Ki: read-out: equilibrium inhibition constant (Ki)
GABAA receptors in SPMs [2] = assay: [^3H]muscimol competition for binding to SPMs; set-up: species or system rat
[3] = test system: GABAA receptors of hippocampal neurons; assay type: cell-based, mouse
hippocampal neurons [4] = assay: Calcium imaging of hippocampal neurons (Ca^2+ oscillations); assay type: cell-based, rat; conditions: 0.3 μM muscimol alone, n=9
[5] = target: GABAA receptors of hippocampal neurons; conditions: reported values; cited from earlier work
[6] = target: GABAA receptors in rat brain synaptic plasma membranes (SPMs) (rat)
[7] = target: GABAA receptors in rat brain synaptic plasma membranes (SPMs) (rat); assay: ratio of the kinetic constants, radioligand binding to rat brain SPMs
[8] = target: GABAA receptors in rat brain synaptic plasma membranes (SPMs) (rat); remark: listed apart in the source
[9] = target: GABAA receptors in rat brain synaptic plasma membranes (SPMs) (rat); remark: listed apart in the source
hippocampal neurons [10] = assay type: cell-based, mouse; conditions: 100 μM PTX, n=5
[11] = target: GABAA receptors of mouse hippocampal neurons (mouse); assay: cell-based or functional assay
[12] = target: GABAA receptors in rat brain synaptic plasma membranes (SPMs) (rat); assay: competition with 40 nM [3H]muscimol for rat brain SPMs, nonlinear fit for an allosteric modulator
[13] = target: GABAA receptors in rat brain synaptic plasma membranes (SPMs) (rat); assay: competition with 125I-rMmTX2 for rat brain SPMs
[14] = target: GABAA receptors in rat brain synaptic plasma membranes (SPMs) (rat); assay: competition with 40 nM [3H]muscimol for rat brain SPMs
α1β2γ2 GABAA receptor = α1β2γ2 GABAA receptor (Rattus norvegicus, UniProt P62813+P63138); assay type: cell-based
mice [15] = conditions: for activity when injected intravenously: mouse, in vivo
mice [16] = conditions: injection into mouse brain
GABAA receptors in SPMs [17] = assay type: binding, rat
[18] = read-out: EC50 for reducing ^125I-MmTX2 binding to SPMs
[19] = sigmoidal dose-response fit, read-out: EC50 for reducing ^125I-MmTX2 binding to SPMs

Sequence of α1β2γ2 GABAA receptor (P63138 25-474): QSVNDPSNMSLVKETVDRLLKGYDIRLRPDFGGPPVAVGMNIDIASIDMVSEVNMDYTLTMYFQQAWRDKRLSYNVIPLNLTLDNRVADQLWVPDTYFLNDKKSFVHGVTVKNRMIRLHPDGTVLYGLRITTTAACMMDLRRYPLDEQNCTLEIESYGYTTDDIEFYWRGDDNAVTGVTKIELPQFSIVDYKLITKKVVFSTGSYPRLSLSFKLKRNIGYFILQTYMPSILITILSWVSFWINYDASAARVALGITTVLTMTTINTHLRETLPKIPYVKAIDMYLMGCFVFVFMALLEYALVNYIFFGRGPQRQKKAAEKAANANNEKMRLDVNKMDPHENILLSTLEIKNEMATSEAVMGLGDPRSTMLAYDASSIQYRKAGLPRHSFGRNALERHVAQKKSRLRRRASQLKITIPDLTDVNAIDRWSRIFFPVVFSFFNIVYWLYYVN
Sequence of α1β2γ2 GABAA receptor (P62813 28-455): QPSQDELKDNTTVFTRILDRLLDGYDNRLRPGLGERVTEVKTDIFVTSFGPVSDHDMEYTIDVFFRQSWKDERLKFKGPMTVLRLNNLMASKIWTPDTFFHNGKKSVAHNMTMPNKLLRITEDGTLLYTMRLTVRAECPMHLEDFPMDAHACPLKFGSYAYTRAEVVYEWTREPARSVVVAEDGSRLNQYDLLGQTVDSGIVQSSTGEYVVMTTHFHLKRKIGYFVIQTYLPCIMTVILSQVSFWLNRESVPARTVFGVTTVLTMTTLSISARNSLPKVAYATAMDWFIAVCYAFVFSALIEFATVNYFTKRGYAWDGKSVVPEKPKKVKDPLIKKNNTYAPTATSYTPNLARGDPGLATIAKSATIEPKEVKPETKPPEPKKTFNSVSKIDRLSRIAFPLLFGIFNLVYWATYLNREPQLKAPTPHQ
Sequence of α1β2γ2 GABAA receptor (P18508 39-466, further chain): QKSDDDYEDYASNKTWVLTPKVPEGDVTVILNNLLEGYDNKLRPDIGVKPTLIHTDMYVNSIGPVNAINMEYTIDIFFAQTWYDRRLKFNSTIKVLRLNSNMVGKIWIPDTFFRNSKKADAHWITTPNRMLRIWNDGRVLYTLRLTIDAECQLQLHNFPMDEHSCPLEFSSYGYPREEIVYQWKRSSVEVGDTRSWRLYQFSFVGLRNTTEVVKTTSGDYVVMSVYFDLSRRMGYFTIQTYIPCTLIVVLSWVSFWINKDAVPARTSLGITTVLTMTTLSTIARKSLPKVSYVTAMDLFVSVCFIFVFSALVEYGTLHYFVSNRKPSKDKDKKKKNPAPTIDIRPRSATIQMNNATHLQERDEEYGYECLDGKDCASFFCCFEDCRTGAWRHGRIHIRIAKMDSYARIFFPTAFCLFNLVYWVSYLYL

NCCCC(=O)O [GABA, γ-aminobutyric acid]
nH (Hill slope) for reducing ^125I-MmTX2 binding (GABAA receptors in SPMs [1]): 0.99±0.18

NCc1cc(=O)[nH]o1 [[^3H]muscimol, reference compound]
Kd (GABAA receptors in SPMs [2]; SPMs, read-out: Kd of [^3H]muscimol (constrained fit parameter)): 1.75 nM

CN1[C@@H]2CC[C@H]1C[C@@H](OC(=O)C(CO)c1ccccc1)C2 (stereo partly shown) [atropine]
competition with ^125I-rMmTX2 for binding to SPMs (GABAA receptors in SPMs [1]): does not compete

COc1cc2c3cc1Oc1cc(ccc1O)C[C@@H]1c4c(cc(OC)c(O)c4Oc4ccc(cc4)C[C@@H]3N(C)CC2)CC[N+]1(C)C [d-tubocurarine]
competition with ^125I-rMmTX2 for binding to SPMs (GABAA receptors in SPMs [1]; ligand 10 μM): no competition is observed

CN1C(=O)CN=C(c2ccccc2)c2cc(Cl)ccc21 [diazepam]
nH (Hill slope) for reducing ^125I-MmTX2 binding (GABAA receptors in SPMs [1]): −0.96±0.07 | EC50 (GABAA receptors in SPMs [1]; [18]): 4900 nM

COc1ccc(-c2ccc(=N)n(CCCC(=O)O)n2)cc1 [gabazine]
nH (Hill slope) for reducing ^125I-MmTX2 binding (GABAA receptors in SPMs [1]): 1.00±0.07 | EC50 (GABAA receptors in SPMs [1]; [18]): 200 nM

N[C@@H](CCC(=O)O)C(=O)O [glutamate]
competition with ^125I-rMmTX2 for binding to SPMs (GABAA receptors in SPMs [1]; ligand 0.1 mM): does not compete

NCC(=O)O [glycine]
competition with ^125I-rMmTX2 for binding to SPMs (GABAA receptors in SPMs [1]): does not compete

O=C(O)C1=CCNCC1 [isoguvacine]
nH (Hill slope) for reducing ^125I-MmTX2 binding (GABAA receptors in SPMs [1]): 1.02±0.29 | EC50 (GABAA receptors in SPMs [1]; [19]): 275000 nM

NCc1cc(=O)[nH]o1 [muscimol, reference compound]
IC50 ([3]; 100 nM rMmTX1, read-out: IC50 of muscimol for abolishing the potentiating effect of rMmTX1): 1100 nM | nH coefficient of GABAA receptor current amplitude ([3]; muscimol alone): 1.4 | EC50 ([3]; muscimol alone, Hill fit, read-out: EC50 of GABAA receptor current amplitude): 4100 nM | frequency of Ca^2+ spikes compared to cells perfused with extracellular saline solution (hippocampal neurons [4]): 98.0±4.8% | EC50 [5]: 5400 to 24000 nM | nH (Hill slope) for reducing ^125I-MmTX2 binding (GABAA receptors in SPMs [1]): 1.08±0.24 | EC50 (GABAA receptors in SPMs [1]; [19]): 2100 nM

CCCC(C)C1(CC)C(=O)NC(=O)NC1=O (stereo not shown) [pentobarbital]
nH (Hill slope) for reducing ^125I-MmTX2 binding (GABAA receptors in SPMs [1]): 0.98±0.07 | EC50 (GABAA receptors in SPMs [1]; [19]): 4800 nM

^125I-rMmTX2 (peptide)
Bmax (fmol/mg of synaptic protein) [6]: 264 | Kd [6]: 0.51 nM | half time duration of dissociation [6]: 8 min | koff [6]: 0.0014 s⁻¹ | kon [6]: 3.7e+06 M⁻¹ s⁻¹ | Kd [7]: 0.38 nM | t1/2 of dissociation [8]: 7.97 min | Bmax (fmol/mg of SPM protein) [9]: 532 | Kd [9]: 0.76 nM | ratio of Bmax with/without PTX [9]: 2.01

cardiotoxin [CTX]
competition with ^125I-rMmTX2 for binding to SPMs (GABAA receptors in SPMs [1]; ligand 10 μM): does not displace

picrotoxin [PTX]
nH for potentiating ^125I-MmTX2 binding capacity (GABAA receptors in SPMs [1]): +1.05±1.16 | EC50 (GABAA receptors in SPMs [1]; read-out: EC50 for potentiating ^125I-MmTX2 binding capacity to SPMs): 3700 nM | action potential frequency (hippocampal neurons [10]): increases more dramatically when compared to sMmTX1

recombinant MmTX1 (rMmTX1) (peptide)
factor of increase of the GABAA current elicited by 5 µM muscimol, with 1 nM rMmTX1 [11]: 1.24 fold | factor of increase of the GABAA current elicited by 5 µM muscimol, with 10 nM rMmTX1 [11]: 1.22 fold | Kd [12]: 4.9 nM | Ki [13]: 3 nM | log Ki [13]: -8.52 | percent of the total [^3H]muscimol binding capacity competed [14]: 40%

recombinant MmTX2 (rMmTX2) (peptide)
Ki [13]: 3.7 nM | log Ki [13]: -8.44

wild-type (WT) MmTX2, micrurotoxin2 purified from Micrurus mipartitus venom (peptide)
Ki [13]: 0.8 nM | log Ki [13]: -9.09

α-bungarotoxin
competition with ^125I-rMmTX2 for binding to SPMs (GABAA receptors in SPMs [1]): no competition is observed

B1: sMmTX1-HRK: sMmTX1 mutated at 4His, 28Arg, 47Lys and acetylated at the N-terminus, SEQ ID NO: 21 (peptide)
chain: Ac-LTCHTCPFTTCPNSESCPGGQSICYQRRWEEHRGERIERRCVANCPKFGSHDTSLLCCTRDNCN
modifications: ends and bridges not checked
effect on α1β2γ2 GABAA receptor currents (α1β2γ2 GABAA receptor; 100 nM muscimol + 100 nM toxin, −70 mV): currents are potentiated and receptor desensitization tends to accelerate | effect on α1β2γ2 GABAA receptor currents (α1β2γ2 GABAA receptor; 300 nM muscimol): potentiating effect is diminished whereas desensitization effect is unaltered

B2: Fas 2: animal toxin that targets AChE (protein, UniProt P0C1Z0 1-61, looked up)
Fasciculin-2: TMCYSHTTTSRAILTNCGENSCYRKSRRHPPKMVLGRGCGCPPGDDNLEVKCCTSPDKCNY
modifications: ends and bridges not checked
competition with ^125I-rMmTX2 for binding to SPMs (GABAA receptors in SPMs [1]; ligand 10 μM): does not compete

B3: rMmTX1: recombinant MmTX1 from a periplasmic expression system (protein)
peptide: LTCKTCPFTTCPNSESCPGGQSICYQRKWEEHRGERIERRCVANCPAFGSHDTSLLCCTRDNCN
modifications: ends and bridges not checked
activity when injected intravenously (mice [15]): inactive | part of the total [^3H]muscimol binding capacity competed for (GABAA receptors in SPMs [2]; 40 nM [^3H]muscimol): about 40% | Kd (GABAA receptors in SPMs [2]; 40 nM [^3H]muscimol, allosteric modulator fit, read-out: Kd in competition with [^3H]muscimol): 4.9 ± 0.2 nM | effect on GABAA receptors in the absence of an agonist [3]: no effect | increase of GABAA receptor-mediated currents [3]: up to 7 fold | Factor of GABAA current increase ([3]; 0.1 μM muscimol + 100 nM rMmTX1): 7.9 ± 2.9 (n = 2) | Cl^− current ([3]; 0.1 μM muscimol together with 100 nM rMmTX1): 228±30 pA | muscimol concentration at the half-maximal potentiating effect of rMmTX1 ([3]; 100 nM rMmTX1): about 1 μM | Factor of GABAA current increase ([3]; 0.3 μM muscimol + 100 nM rMmTX1): 7.5 ± 1.2 (n = 4) | inward current ([3]; 0.3 μM muscimol together with 100 nM rMmTX1, neurons without response to muscimol alone): 439±51 pA | Factor of GABAA current increase ([3]; 1.0 μM muscimol + 100 nM rMmTX1): 1.9 ± 0.4 (n = 3) | Factor of GABAA current increase ([3]; 3 μM muscimol + 100 nM rMmTX1): 1.4 ± 0.1 (n = 6) | factor of GABAA current amplitude increase ([3]; 5 μM muscimol + 1 nM rMmTX1, n=9): 1.24 ± 0.07 | factor of GABAA current amplitude increase ([3]; 5 μM muscimol + 10 nM rMmTX1, n=9): 1.22 ± 0.03 | factor of GABAA current amplitude increase ([3]; 5 μM muscimol + 100 nM rMmTX1, n=9): 1.99 ± 0.28 | factor of GABAA current amplitude increase ([3]; 5 μM muscimol + 300 nM rMmTX1, n=9): 1.69 ± 0.25 | Factor of GABAA current increase ([3]; 30 μM muscimol + 100 nM rMmTX1): 1.0 ± 0.1 (n = 4) | Factor of GABAA current increase ([3]; 50 μM muscimol + 100 nM rMmTX1): 1.0 ± 0.1 (n = 3) | toxin-induced potentiation at high muscimol ([3]; muscimol concentrations greater than 10 μM): do not observe a toxin-induced potentiation | LD50 (mice [16]): 0.027 mg/kg | behavioral signs (mice [16]): reduced activity combined with severe seizures | displacing ^125I-rMmTX2 (in words) (GABAA receptors in SPMs [1]): equally potent | Ki (GABAA receptors in SPMs [1]): 3 nM

B4: MmTX1 (protein, listed as Micrurus mipartitus)
chain: LTCKTCPFTTCPNSESCPGGQSICYQRKWEEHRGERIERRCVANCPAFGSHDTSLLCCTRDNCN
modifications: ends and bridges not checked
displacing ^125I-rMmTX2 (in words) (GABAA receptors in SPMs [1]): equally potent

B5: rMmTX2: recombinant MmTX2 from a periplasmic expression system (protein)
peptide: LTCKTCPFTTCPNSESCPGGQSICYQRKWEEHHGERIERRCVANCPAFGSHDTSLLCCTRDNCN
modifications: ends and bridges not checked
flaccid paralysis (mice [15]; injected intravenously into mice): no flaccid paralysis | activity when injected intravenously (mice [15]): inactive | LD50 (mice [16]): 0.010 mg/kg | behavioral signs (mice [16]): reduced activity combined with severe seizures | displacing ^125I-rMmTX2 (in words) (GABAA receptors in SPMs [1]): equally potent | Ki (GABAA receptors in SPMs [1]): 3.7 nM

B6: ^125I-rMmTX2: MmTX2 radioactively labeled by lacto-peroxidase-catalyzed iodination (protein)
peptide: LTCKTCPFTTCPNSESCPGGQSICYQRKWEEHHGERIERRCVANCPAFGSHDTSLLCCTRDNCN
modifications: ends and bridges not checked; also: 125I iodination (lactoperoxidase-catalysed), site not given here
second-order kinetic constant of association (k+1) (GABAA receptors in SPMs [17]; 1 to 4 nM ligand, SPMs): 3.7±0.5×10^6 M^−1 s^−1 | first-order kinetic constant (k−1) (GABAA receptors in SPMs [17]; dissociation after 1000-fold excess of unlabeled rMmTX2): 0.0014 ± 0.0004 s⁻¹ | half time duration of dissociation (GABAA receptors in SPMs [17]; dissociation from SPMs): ~8 min | Kd (GABAA receptors in SPMs [17]; in the presence of 1 mM PTX, read-out: Kd with PTX): 0.76 ± 0.18 nM | Kd (GABAA receptors in SPMs [17]; ratio of both kinetic constants, read-out: true dissociation value (Kd=k−1/k+1)): 0.38 ± 0.05 nM | Kd (GABAA receptors in SPMs [17]; read-out: Kd (saturation binding at equilibrium)): 0.51 ± 0.09 nM
